Measured values published in article PMC6509287.
Each block holds one substance with its values, some of them ahead of it.

What was measured:
[1] = target: TOPBP1 (UniProt Q92547); test: GST pull-down from nuclear extract; conditions: reference: wild-type fragment; sites S196
[2] = target: TOPBP1 (UniProt Q92547); test: HA immunoprecipitation, western blot; conditions: reference: wild type

- binding against the reference [1]: lost
Substance: MDC1 109-330 (from UniProt Q14676) S196A

- binding against the reference ([2]; sites S168): lost
Substance: MDC1 (from UniProt Q14676) S168A

- binding against the reference ([2]; sites S196): lost
Substance: MDC1 (from UniProt Q14676) S196A
